Data on 5 substances can be found in patent US20240018502A1.

Assay [1] deals with plasma purified human complement protein C3 (human) (UniProt P01024). In words: cell-based or functional assay.
The target of assay [2] is human complement protein C3 (human) (UniProt P01024). In words: cell-based or functional assay.
Chain of human complement protein C3 (human) (P01024 23-667, chain 1 of 2): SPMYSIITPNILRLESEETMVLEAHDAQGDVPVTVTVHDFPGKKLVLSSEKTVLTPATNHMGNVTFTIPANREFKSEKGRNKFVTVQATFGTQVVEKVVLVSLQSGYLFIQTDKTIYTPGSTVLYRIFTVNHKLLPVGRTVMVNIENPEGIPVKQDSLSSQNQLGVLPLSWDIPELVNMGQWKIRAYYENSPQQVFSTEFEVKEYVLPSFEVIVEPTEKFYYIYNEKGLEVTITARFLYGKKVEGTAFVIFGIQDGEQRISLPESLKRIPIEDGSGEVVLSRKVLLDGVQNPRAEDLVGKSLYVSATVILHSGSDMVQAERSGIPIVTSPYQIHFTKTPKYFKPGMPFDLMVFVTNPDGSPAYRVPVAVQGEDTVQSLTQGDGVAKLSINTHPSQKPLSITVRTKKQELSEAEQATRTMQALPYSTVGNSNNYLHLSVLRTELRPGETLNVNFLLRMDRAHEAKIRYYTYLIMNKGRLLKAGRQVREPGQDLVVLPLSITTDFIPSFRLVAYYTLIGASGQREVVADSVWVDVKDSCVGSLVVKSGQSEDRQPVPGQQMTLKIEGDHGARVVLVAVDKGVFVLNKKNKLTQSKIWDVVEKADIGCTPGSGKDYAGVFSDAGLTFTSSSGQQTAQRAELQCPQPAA
Chain of human complement protein C3 (human) (P01024 672-1663, chain 2 of 2): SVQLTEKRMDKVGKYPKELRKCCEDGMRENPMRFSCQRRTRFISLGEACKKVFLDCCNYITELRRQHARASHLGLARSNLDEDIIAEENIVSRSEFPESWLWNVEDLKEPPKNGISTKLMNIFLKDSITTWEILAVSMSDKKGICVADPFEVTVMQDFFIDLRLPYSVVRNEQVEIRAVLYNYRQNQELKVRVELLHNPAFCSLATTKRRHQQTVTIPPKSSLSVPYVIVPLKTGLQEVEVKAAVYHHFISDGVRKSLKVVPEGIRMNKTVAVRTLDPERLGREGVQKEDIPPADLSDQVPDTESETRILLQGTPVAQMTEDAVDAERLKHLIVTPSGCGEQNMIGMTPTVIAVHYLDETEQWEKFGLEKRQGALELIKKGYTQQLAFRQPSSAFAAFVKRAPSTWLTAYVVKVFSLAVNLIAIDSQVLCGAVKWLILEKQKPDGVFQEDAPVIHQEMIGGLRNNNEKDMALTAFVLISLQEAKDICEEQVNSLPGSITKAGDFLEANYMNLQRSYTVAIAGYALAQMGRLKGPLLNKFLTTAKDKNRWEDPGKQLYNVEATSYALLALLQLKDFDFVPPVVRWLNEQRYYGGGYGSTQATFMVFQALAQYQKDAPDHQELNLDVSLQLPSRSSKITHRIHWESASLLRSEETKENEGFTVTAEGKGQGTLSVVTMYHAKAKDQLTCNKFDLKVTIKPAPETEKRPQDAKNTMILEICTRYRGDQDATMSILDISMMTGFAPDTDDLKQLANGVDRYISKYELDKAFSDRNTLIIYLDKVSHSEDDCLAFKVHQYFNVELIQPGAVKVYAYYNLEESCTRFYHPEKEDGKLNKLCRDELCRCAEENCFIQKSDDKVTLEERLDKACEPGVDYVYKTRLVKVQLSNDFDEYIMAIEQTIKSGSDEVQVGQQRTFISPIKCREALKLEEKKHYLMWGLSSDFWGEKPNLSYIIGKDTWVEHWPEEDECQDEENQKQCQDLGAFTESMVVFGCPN

Chain of plasma purified human complement protein C3 (human) (P01024 23-667, chain 1 of 2): as the sequence (P01024 23-667, chain 1 of 2) above
Chain of plasma purified human complement protein C3 (human) (P01024 672-1663, chain 2 of 2): as the sequence (P01024 672-1663, chain 2 of 2) above

“MTSP-1 protease domain Q38Y/I41S/D60bT/F60eR/Y60gW/D96M/F97N/T98G/F99L/C122S/Q175L/Q192D (from UniProt Q9Y5Y6 615-855) (enzyme)” showed an EC50 hC3 cleavage in assay [1] of 3.75 nM.
As for “MTSP-1 H40R/I41H/Y60gL/F97D/F99L/C122S/G151N/Q175M/D217I/K224S (from UniProt Q9Y5Y6 615-855) (enzyme)”, in assay [1], the EC50 of hC3 cleavage came to 7.41 nM.
The same measure, in the same setting: for “MTSP-1 H40R/I41H/F97D/F99L/C122S/G151D/Q192G (from UniProt Q9Y5Y6 615-855) (enzyme)” the value was 1530 nM.
As to “Q38Y/I41S/D60bT/F60eR/Y60gW/D96M/F97N/T98G/F99L/C122S/Q175L/Q192D (from UniProt Q9Y5Y6 615-855) (enzyme)”, the EC50 (nM), cleavage of purified hC3 in vitro in assay [2] is 3.75 nM.
In assay [1], “MTSP-1 H40R/I41H/F97D/F99L/C122S/Q175L/Q192G/D217Q/K224R (from UniProt Q9Y5Y6 615-855) (enzyme)” showed an EC50 of hC3 cleavage of 14.9 nM.
